Laboratory results published in the supplement of paper PMC10567573.
± gives the standard deviation.

Assay: protein stability index of a GFP-peptide fusion (GPS, HEK-293T) (PSI 1-6); higher = more stable
Details: c terminus: a fixed tail appended
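Note: 24-mer peptide tiles fused after GFP, lentivirally expressed, FACS-sorted into six equal bins by GFP/DsRed ratio, decoded by Illumina sequencing, PSI is the read-weighted mean bin number.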

Row | Sequence | protein stability index (treatment: DMSO) | protein stability index (treatment: MLN4924 1 uM, 8 h)
1 | TPVVLVGNKSDLKQLRQVTKEEGL [RIT1] | 4.54 ± 0.15 | 4.59 ± 0.32
2 | IGPNVLMVHKRSHTGERPFQCNQC [IKZF1] | 2.93 ± 0.26 | 3.17 ± 0.43
3 | MNEVKESLRSIEQKYKLFQQQQLT [SPACA9] | 3.33 ± 0.13 | 3.2 ± 0.22
4 | ASSSRSVRTTRGKRKRVDVEESEA [LMNB1] | 5.22 ± 0.39 | 5.49 ± 0.29
5 | LIGLISDRLRRNWPPSFLSEFRAL [SPNS1] | 2.19 ± 0.35 | 2.1 ± 0.2
6 | EGFQRCDVARQLGKNNEFSRLVAG [PSD2] | 3.22 ± 0.25 | 3.58 ± 0.23
7 | AAEMYQRGRAVLREAGFHQYEVSN [RSAD1] | 3.32 ± 0.3 | 3.29 ± 0.24
8 | LLKAGADVNKTDHSQRTALHLAAQ [INVS] | 4.11 ± 0.33 | 4.09 ± 0.17
9 | VVEEILELHIHRLRYLSSIWNILD [PKD2L1] | 3.29 ± 0.65 | 3.04 ± 0.3
10 | RPYMCKECGKAFSQNSSLVQHERI [ZNF8] | 2.82 ± 0.16 | 3.24 ± 0.45
11 | VFQHGDNSFRLLFDVVVILTCSLS [MCOLN1] | 3.25 ± 0.13 | 3.32 ± 0.21
12 | EVSQQDPSHGEVGEHKDRIERQWG [ZSCAN9] | 4.69 ± 0.18 | 4.95 ± 0.15
13 | FWNQGLTWKVLFCSMSATFTLNFF [CLCN6] | 3.31 ± 0.5 | 3.17 ± 0.21
14 | HKHVHFSSSFTSIASEWFLIANRS [SLC22A15] | 2.43 ± 0.57 | 2.04 ± 0.33
15 | VHSERKLLPLVTLCDGNPRRPSPV [SCNN1D] | 3.58 ± 0.23 | 3.56 ± 0.49
16 | GGGSSRISSVLAGGSCRAPSTYGG [KRT16] | 3.04 ± 0.59 | 3.46 ± 0.18
17 | NMCLVATGGADAYYEMGIHCWDVA [IMPA1] | 2.13 ± 0.23 | 2.3 ± 0.18
18 | RQPPPPAPQHPQPGSQALPAPALA [FBXO28] | 4.45 ± 0.23 | 4.74 ± 0.16
19 | GEYIYTGNAKGKILVLKTDSQDLV [RBBP5] | 2.25 ± 0.24 | 2.45 ± 0.57
20 | SDKDKAVGIFNTVINPMLNPIIYS [OR3A1] | 2.54 ± 0.3 | 2.71 ± 0.25
21 | TRHEGSFQVPVLCAVMNVVFITIL [CD69] | 2.76 ± 0.55 | 2.63 ± 0.58
22 | HLTRHQRTHTGEKPYKCTLCGENF [ZNF263] | 3.36 ± 0.53 | 3.45 ± 0.51

Row | Sequence | protein stability index (treatment: DMSO) | protein stability index (treatment: MLN4924 1 uM, 8 h)
23 | FSVTGGTEEKSSLLMSCLACDTWA [RPAIN] | 2.27 ± 0.26 | 2.27 ± 0.25
24 | FLSLDIPIGELYGLSESSGPHTIS [ACSBG2] | 2.39 ± 0.4 | 2.47 ± 0.36
25 | CAKLDSCALGDHGCEHSCVSSEDS [MATN2] | 4.91 ± 0.35 | 4.99 ± 0.38
26 | HLGCMHYTVRAPVGVAGLISPWNL [ALDH8A1] | 2.48 ± 0.97 | 2.31 ± 0.64
27 | GDCDAREEKQRELARKGSLKNGSM [FAM219A] | 5.1 ± 0.26 | 5.35 ± 0.4
28 | YSEEECKQYKAVVYSNTIQSIIAI [GNAI1] | 2.35 ± 0.63 | 2.06 ± 0.33
29 | MGPYNPDTCPEVGFFDVLGNDRRR [ACBD3] | 4.08 ± 0.37 | 4.02 ± 0.35
30 | MDHPSREKDERQRTTKPMAQRSAH [CSNK1G1] | 5.34 ± 0.22 | 5.09 ± 0.57
31 | QDVDPVHNLIEQVSLGLGQPWHAV [FBXO33] | 2.75 ± 0.17 | 2.55 ± 0.18
32 | IELAPLSMPRINHGVLSAEGFLFV [GAN] | 3.34 ± 1.1 | 2.81 ± 0.61
33 | TLDVYNPFETREPPPAYEPPAPAP [SCAMP3] | 4.51 ± 0.18 | 4.61 ± 0.2
34 | NQQIHEQEKKILELEKLAEKNIIL [MTUS2] | 4.13 ± 0.18 | 4.25 ± 0.17
35 | PGFSTLSLADQMSLLQSAWMEILI [ESRRG] | 2.27 ± 0.88 | 2.29 ± 0.4
36 | GPPRAPGRSGWPAGGAPGSPIPSP [HES6] | 4.32 ± 0.18 | 4.26 ± 0.2
37 | DSNMPHFQTLQAIVSHFQKLFDVP [CEP70] | 2.38 ± 0.1 | 2.47 ± 0.22
38 | DVSSTEEFLELSPQKLKEVISLEK [GAN] | 4.88 ± 0.18 | 4.87 ± 0.16
39 | LLRTARVRRECWFLPTALLCAYGF [SLC19A2] | 2.54 ± 0.8 | 2.54 ± 0.43
40 | NGLEDIDRILERIEDSTGLNRPGP [TCF25] | 4.48 ± 0.21 | 4.75 ± 0.21
41 | ETPNSLNTTVIPNGSMAMGTVPGQ [LYSMD4] | 4.43 ± 0.19 | 4.42 ± 0.23
42 | RDLIPPHVNFSHLTTKDYMEMYNV [SLC6A17] | 3.04 ± 0.28 | 3.23 ± 0.17
43 | KARGKSGPLFNFDVHDDVRLLSDA [FAM50A] | 3.87 ± 0.15 | 3.81 ± 0.3
44 | LTRVLAEMREQYEAMAEKNRRDVE [KRT15] | 3.47 ± 0.31 | 3.93 ± 0.28
